By kcat is commonly meant the maximal rate divided by the concentration of active sites.

Holding throughout (test): purified protein
Holding throughout (settings): 5 mM ATP, 0.5 mM CoASH, 30-300 µM FA, 10 mM MgCl2, 0.1% Triton X-100, pH 7.2, 37°C, printed unit mM conflicts with printed kcat/Km and FA range (implies µM)

Series [1] concerns CCCCCCCCCCCCCCCC(=O)O.
For series [2], the system named is CCCCCC(=O)O.
Series [3] concerns CCCCCCCCCCCCCC(=O)O.
Series [4] concerns CCCCCCCCCCCC(=O)O.
Series [5] concerns CCCCCCCC(=O)O.
For series [6], the system named is CCCC(=O)O.
From the text: (§1) DTNB (Ellman) assay of CoASH consumption, A412, Hanes-Woolf plot on FadD1
The test system of series [7] is CCCCCCCCCC(=O)O.
From the text: as §1

In the case of FadD2 (Pseudomonas aeruginosa PAO1), the turnover number (kcat) in series [1] was 0.102 s⁻¹; in series [2] it was 0.164 s⁻¹; in series [3] it was 0.112 s⁻¹; in series [4] it was 0.141 s⁻¹; in series [5], 0.210 s⁻¹.
Regarding FadD1 (Pseudomonas aeruginosa PAO1), the catalytic constant (kcat) in series [1] came out at 0.158 s⁻¹; in series [6], 0.141 s⁻¹; in series [2], 0.137 s⁻¹; in series [3] it was 0.134 s⁻¹; in series [4] it was 0.134 s⁻¹; in series [5] it was 0.128 s⁻¹. Besides, in series [7], the turnover number (kcat) stood at 0.119 s⁻¹.

The values are drawn from article PMC2958839, “Multiple FadD Acyl-CoA Synthetases Contribute to Differential Fatty Acid Degradation and Virulence in Pseudomonas aeruginosa” (PLoS ONE, 2010).
